{
  "source": "patent US7355015B1",
  "about": "“Matriptase, a serine protease and its applications” (Georgetown University School of Medicine, priority 1999, dated 2008)",
  "molecules": {"B1": {"name": "HAI-1: Kunitz-type serine protease inhibitor, cognate inhibitor of matriptase, co-purified from human milk (protein, UniProt O43278 36-529, looked up)", "Kunitz-type protease …": "GPPPAPPGLPAGADCLNSFTAGVPGFVLDTNASVSNGATFLESPTVRRGWDCVRACCTTQNCNLALVELQPDRGEDAIAACFLINCLYEQNFVCKFAPREGFINYLTREVYRSYRQLRTQGFGGSGIPKAWAGIDLKVQPQEPLVLKDVENTDWRLLRGDTDVRVERKDPNQVELWGLKEGTYLFQLTVTSSDHPEDTANVTVTVLSTKQTEDYCLASNKVGRCRGSFPRWYYDPTEQICKSFVYGGCLGNKNNYLREEECILACRGVQGGPLRGSSGAQATFPQGPSMERRHPVCSGTCQPTQFRCSNGCCIDSFLECDDTPNCPDASDEAACEKYTSGFDELQRIHFPSDKGHCVDLPDTGLCKESIPRWYYNPFSEHCARFTYGGCYGNKNNFEEEQQCLESCRGISKKDVFGLRREIPIPSTGSVEMAVAVFLVICIVVVVAILGYCFFKNQRKDFHGHHHHPPPTPASSTVSTTEDTEHLVYNHTTRPL"}, "B2": {"name": "two-chain (active) form of matriptase, milk-derived, released from its complexes (protein)", "chain 1": "SFVVTSVVAFPTDSKTVQRTQDNSCSFGLHARGVELMRFTTPGFPDSPYPAHARCQWALRGDADSVLSLTFRSFDLASCDERGSDLVTVYNTLSPMEPHALVQLCGTYPPSYNLTFHSSQNVLLITLITNTERRHPGFEATFFQLPRMSSCGGRLRKAQGTFNSPYYPGHYPPNIDCTWNIEVPNNQHVKVRFKFFYLLEPRRACGTCPKDYVEINGEKYCGERSQFVVTSNSNKITVRFHSDQSYTDTGFLAEYLSYDSSDPCPGQFTCRTGRCIRKELRCDGWADCTDHSDELNCSCDAGHQFTCKNKFCKPLFWVCDSVNDCGDNSDEQGCSCPAQTFRCSNGKCLSKSQQCNGKDDCGDGSDEASCPKVNVVTCTKHTYRCLNGLCLSKGNPECDGKEDCSDGSDEKDCDCGLRSFTRQAR", "chain 2": "VVGGTDADEGEWPWQVSLHALGQGHICGASLISPNWLVSAAHCYIDDRGFRYSDPTQWTAFLGLHDQSQRSAPGVQERRLKRIISHPFFNDFTFDYDIALLELEKPAEYSSMVRPICLPDASHVFPAGKAIWVTGWGHTQYGGTGALILQKGEIRVINQTTCENLLPQQITPRMMCVGFLSGGVDSCQGDSGGPLSSVEADGRIFQAGVVSWGDGCAQRNKPGVYTRLPLFRDWIKENTGV"}, "B3": {"name": "placenta bikunin: second Kunitz-type inhibitor with two Kunitz domains, isolated from human placenta (protein, UniProt O43291 28-252, looked up)", "Kunitz-type protease …": "ADRERSIHDFCLVSKVVGRCRASMPRWWYNVTDGSCQLFVYGGCDGNSNNYLTKEECLKKCATVTENATGDLATSRNAADSSVPSAPRRQDSEDHSSDMFNYEEYCTANAVTGPCRASFPRWYFDVERNSCNNFIYGGCRGNKNSYRSEEACMLRCFRQQENPPLPLGSKVVVLAGLFVMVLILFLGASMVYLIRVARRNQERALRTVWSSGDDKEQLVKNTYVL"}, "B4": {"name": "BBI: soybean-derived Bowman-Birk inhibitor of serine proteases (protein)", "chain": "DDESSKPCCDQCACTKSNPPQCRCSDMRLNSCHSACKSCICALSYPAQCFCVDITDFCYEPCKPSEDDKEN"}},
  "key": {"[1]": {"biological_target": "T1, matriptase (Homo sapiens, UniProt Q9Y5Y6)", "T1 construct": "from tissue; host or cells: human milk", "T1 sequence (Q9Y5Y6 615-855 limits assumed)": "B2 chain 2", "T1 sequence (Q9Y5Y6 190-614 partner limits assumed)": "B2 chain 1 with R202G, R203V, A204P, C205A", "assay": "Cleavage rate assay with fluorescent substrate BOC-Gln-Ala-Arg-AMC after matriptase/HAI-1 complex formation", "type": "biochemical", "details": "pH 8.5", "experimental": "(§1) Matriptase and HAI-1 were isolated from human milk by anti-matriptase mAb 21-9 immunoaffinity chromatography, as described in Example 1, and were maintained in an uncomplexed status in elution buffer, 0.1 M glycine, pH 2.4. This preparation was brought to pH 8.5, incubated at 37° C. for 0, 5, 30 and 60 min., and subjected to immunoblotting using anti-matriptase mAb 21-9 (panel A), gelatin zymography (panel B), and to a cleavage rate assay using the synthetic, fluorescent substrate, BOC—Gin—Ala—Agr-7-amido 4-methylcoumarin (panel C). […] A milk-derived, matriptase-related 110-kDa protease (as indicated in panel A), which was not a complex of matriptase and HAI-1, and whose migration on SDS gel was reduced after boiling (see Example 1).\nProteolytic activity of matriptase determined by cleavage of trypsin substrate, BOC—Gln—Ala—Arg—AMC: A variety of synthetic, fluorescent protease substrates with arginine or lysine as P1 sites can be cleaved by matriptase, as described in Example 2. Among these substrates, t-butyloxycarbonyl (BOC)—Gln—Ala—Arg-7-amino-4-methylcoumarin (Sigma; St. Louis, Mo.) is likely to be the best one. Using this substrate, matriptase was assayed in 20 mM Tris buffer pH 8.5 at 25° C. in a total volume of 200 μl. The final substrate concentration was 0.1 mM. The rate of cleavage was determined with a fluorescence spectrophotometer (Hitachi, F-4500). […]"}, "[2]": {"biological_target": "T1, matriptase", "assay": "Gelatin zymography of matriptase/HAI-1 preparation", "type": "biochemical", "experimental": "as §1\nGelatin zymography: Gelatin zymography was carried out as previously described with some modifications (Brown et al., Biochem J. 101: 214-228 (1966)). Gelatin (1 mg/ml), as a substrate, was copolymerized with regular SDS-polyacrylamide gel. Electrophoresis was performed at a constant current of 15 mA. The gelatin gels were washed 3 times with PBS containing 2% Triton X-100 and incubated in PBS at 37° C. overnight.\nInhibition of matriptase activity by the interaction with HAI-1: HAI-1, a protein containing contains two protease inhibitory domains (Kunitz domains), was initially identified as a binding protein of matriptase. […]"}, "[3]": {"biological_target": "T2, 40-kDa fragment of hepatocyte growth factor activator inhibitor-1 (HAI-1)", "T2 chain": "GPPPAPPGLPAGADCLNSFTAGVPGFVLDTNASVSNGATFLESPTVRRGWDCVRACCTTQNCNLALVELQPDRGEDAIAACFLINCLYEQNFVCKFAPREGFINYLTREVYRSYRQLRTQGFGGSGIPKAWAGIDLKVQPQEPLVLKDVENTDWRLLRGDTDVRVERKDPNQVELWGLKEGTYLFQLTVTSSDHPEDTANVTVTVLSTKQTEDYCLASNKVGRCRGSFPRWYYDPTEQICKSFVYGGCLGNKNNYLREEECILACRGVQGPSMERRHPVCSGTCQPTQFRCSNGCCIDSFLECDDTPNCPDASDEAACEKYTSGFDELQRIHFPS"}, "[4]": {"biological_target": "T3, soybean-derived Bowman-Birk inhibitor (BBI), P01055", "T3 chain": "B4 chain"}, "[5]": {"biological_target": "human tissue kallikrein (Homo sapiens, UniProt P06870)", "sequence (P06870 25-262)": "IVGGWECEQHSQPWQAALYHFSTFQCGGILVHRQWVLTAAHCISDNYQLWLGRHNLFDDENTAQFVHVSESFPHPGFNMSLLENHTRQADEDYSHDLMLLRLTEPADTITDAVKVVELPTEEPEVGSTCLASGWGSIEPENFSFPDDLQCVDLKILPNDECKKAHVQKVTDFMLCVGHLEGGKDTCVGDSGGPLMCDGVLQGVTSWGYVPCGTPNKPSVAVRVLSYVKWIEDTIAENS", "details": "cited from earlier work"}, "[6]": {"biological_target": "human factor XIa (Homo sapiens, UniProt P03951)", "sequence (P03951 388-625 limits assumed)": "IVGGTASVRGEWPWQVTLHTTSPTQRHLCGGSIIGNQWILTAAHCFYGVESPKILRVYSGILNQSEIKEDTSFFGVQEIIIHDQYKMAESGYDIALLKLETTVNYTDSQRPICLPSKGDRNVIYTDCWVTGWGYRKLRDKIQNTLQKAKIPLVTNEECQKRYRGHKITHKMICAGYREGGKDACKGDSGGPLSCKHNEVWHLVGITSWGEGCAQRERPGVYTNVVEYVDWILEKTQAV", "sequence (P03951 19-387 partner limits assumed)": "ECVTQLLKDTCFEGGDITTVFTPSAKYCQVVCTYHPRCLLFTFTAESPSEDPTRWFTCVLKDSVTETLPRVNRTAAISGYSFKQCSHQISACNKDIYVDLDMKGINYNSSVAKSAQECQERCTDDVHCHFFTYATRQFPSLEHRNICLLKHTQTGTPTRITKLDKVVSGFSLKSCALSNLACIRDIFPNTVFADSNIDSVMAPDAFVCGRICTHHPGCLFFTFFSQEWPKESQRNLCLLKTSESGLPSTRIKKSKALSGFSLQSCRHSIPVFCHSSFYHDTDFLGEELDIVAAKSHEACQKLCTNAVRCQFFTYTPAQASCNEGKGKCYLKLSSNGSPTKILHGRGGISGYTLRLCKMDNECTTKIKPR", "details": "cited from earlier work"}, "[7]": {"biological_target": "human plasmin (Homo sapiens, UniProt P00747)", "sequence (P00747 581-810 limits assumed)": "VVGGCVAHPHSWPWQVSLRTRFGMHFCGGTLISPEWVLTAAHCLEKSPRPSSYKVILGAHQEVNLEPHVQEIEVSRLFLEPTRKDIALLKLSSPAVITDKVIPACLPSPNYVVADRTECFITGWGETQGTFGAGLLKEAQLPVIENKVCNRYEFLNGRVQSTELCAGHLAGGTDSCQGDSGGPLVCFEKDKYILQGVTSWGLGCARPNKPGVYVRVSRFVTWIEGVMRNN", "sequence (P00747 97-580 partner limits assumed)": "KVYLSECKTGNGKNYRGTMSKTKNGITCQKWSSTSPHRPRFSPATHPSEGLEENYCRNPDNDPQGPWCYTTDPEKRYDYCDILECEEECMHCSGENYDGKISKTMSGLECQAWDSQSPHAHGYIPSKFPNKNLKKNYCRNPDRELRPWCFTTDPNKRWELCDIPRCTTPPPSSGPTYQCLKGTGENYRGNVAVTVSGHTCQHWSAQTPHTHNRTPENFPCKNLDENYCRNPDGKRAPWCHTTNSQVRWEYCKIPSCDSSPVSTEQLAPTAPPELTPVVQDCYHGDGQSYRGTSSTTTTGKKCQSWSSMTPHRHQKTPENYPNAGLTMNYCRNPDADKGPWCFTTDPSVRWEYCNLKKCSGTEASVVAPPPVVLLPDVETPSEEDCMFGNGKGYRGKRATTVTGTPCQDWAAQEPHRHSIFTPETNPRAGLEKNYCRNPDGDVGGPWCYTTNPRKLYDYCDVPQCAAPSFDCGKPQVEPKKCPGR", "details": "cited from earlier work"}, "[8]": {"biological_target": "human plasma kallikrein (Homo sapiens, UniProt P03952)", "sequence (P03952 20-638)": "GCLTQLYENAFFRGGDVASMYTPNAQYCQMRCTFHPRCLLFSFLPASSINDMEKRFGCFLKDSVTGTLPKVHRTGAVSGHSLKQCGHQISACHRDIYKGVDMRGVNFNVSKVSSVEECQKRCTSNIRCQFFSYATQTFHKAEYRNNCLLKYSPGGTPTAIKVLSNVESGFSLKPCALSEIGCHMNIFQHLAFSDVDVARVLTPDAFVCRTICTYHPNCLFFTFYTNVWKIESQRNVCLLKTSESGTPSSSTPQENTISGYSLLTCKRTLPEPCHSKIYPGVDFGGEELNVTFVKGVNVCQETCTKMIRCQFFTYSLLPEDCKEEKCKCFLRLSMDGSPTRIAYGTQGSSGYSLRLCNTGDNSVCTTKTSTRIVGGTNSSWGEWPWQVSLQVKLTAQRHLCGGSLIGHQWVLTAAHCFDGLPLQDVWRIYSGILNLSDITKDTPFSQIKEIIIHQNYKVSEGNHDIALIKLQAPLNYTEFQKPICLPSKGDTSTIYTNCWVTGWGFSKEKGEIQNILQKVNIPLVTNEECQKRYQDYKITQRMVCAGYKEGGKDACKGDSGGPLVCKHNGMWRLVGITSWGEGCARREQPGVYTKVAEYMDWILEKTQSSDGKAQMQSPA", "details": "cited from earlier work"}, "[9]": {"biological_target": "T4, matriptase (Homo sapiens, UniProt Q9Y5Y6)", "T4 sequence (Q9Y5Y6 1-855)": "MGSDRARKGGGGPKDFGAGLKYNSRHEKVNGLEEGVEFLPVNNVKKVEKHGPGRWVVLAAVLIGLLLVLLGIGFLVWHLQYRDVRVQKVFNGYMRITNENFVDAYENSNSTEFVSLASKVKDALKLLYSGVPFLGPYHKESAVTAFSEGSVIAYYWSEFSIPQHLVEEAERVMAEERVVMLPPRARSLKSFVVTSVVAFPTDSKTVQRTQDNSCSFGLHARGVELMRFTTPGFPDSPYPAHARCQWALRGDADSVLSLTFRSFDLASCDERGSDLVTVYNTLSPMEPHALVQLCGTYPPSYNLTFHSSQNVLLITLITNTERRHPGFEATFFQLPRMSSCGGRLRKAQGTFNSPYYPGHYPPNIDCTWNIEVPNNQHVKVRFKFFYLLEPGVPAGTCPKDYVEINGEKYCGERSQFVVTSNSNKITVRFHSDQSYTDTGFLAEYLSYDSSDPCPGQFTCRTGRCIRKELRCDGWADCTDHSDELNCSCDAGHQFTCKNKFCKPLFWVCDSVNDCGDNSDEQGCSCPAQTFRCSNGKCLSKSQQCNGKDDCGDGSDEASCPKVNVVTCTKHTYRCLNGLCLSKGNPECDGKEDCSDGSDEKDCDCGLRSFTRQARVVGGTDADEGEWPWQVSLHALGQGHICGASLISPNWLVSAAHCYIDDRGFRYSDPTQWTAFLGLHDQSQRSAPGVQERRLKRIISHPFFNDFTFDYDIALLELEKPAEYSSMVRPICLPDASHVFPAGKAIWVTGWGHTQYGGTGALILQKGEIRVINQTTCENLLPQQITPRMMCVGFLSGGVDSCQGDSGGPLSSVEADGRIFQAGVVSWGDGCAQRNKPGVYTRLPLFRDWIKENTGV", "assay": "Fluorescent substrate assay and zymography with BBI", "type": "biochemical", "experimental": "A concentrate of BBI, BBIC, can be administered in dosage sufficient to obtain a blood level of 0.001 to 1 mM concentration of BBI in the blood as a means of inhibiting tumor initiation in a susceptible to breast cancer. As indicated by presence of matriptase in nipple aspirate or in tissue from biopsy, including tissue from needle biopsy. […] BBI interacts directly with the serine protease active site on matriptase."}, "[10]": {"details": "after 30 and 60 min incubation at 37° C."}},
  "note": "Positions count from the first letter of the chain named.",
  "data": [
    {"molecule": "B1", "values": [
      {"measurement": "activity by cleavage of fluorescent substrate", "setting": "[1]; [10]", "value": "negligible activity"},
      {"measurement": "cleavage rate for fluorescent substrate, remaining", "setting": "[1]; after 5 min incubation at 37° C.", "value": 18, "unit": "%"},
      {"measurement": "gelatinolytic activity by gelatin zymography", "setting": "[2]; [10]", "value": "negligible activity"},
      {"measurement": "gelatinolytic activity of complexed matriptase", "setting": "[2]; after 5 min incubation at 37° C., versus uncomplexed matriptase", "value": "much weaker activity"}
    ]},
    {"molecule": "B2", "values": [
      {"measurement": "cleavage rate of the fluorescent substrate BOC-Gln-Ala-Arg-7-amido-4-methylcoumarin after 5 min at 37° C., pH 8.5", "setting": "[3]", "value": "the cleavage rate for fluorescent substrate was significantly reduced, down to 18%"},
      {"measurement": "gelatin zymography and cleavage of fluorescent substrate after 30 and 60 min at 37° C., pH 8.5", "setting": "[3]", "value": "negligible activity was observed by gelatin zymography (panel B) and by cleavage of fluorescent substrate"},
      {"measurement": "rate of cleavage of a synthetic, fluorescent substrate", "setting": "[3]", "value": "the rate of cleavage of a synthetic, fluorescent substrate by matriptase was decreased following complex formation"},
      {"measurement": "matriptase activity by fluorescent substrate assay and zymography", "setting": "[4]", "value": "BBI can decrease matriptase activity in a dose-dependent manner"}
    ]},
    {"molecule": "B3", "values": [
      {"measurement": "inhibition of human tissue kallikrein", "setting": "[5]", "value": "strong inhibition"},
      {"measurement": "inhibition of human factor XIa", "setting": "[6]", "value": "strong inhibition"},
      {"measurement": "inhibition of human plasmin", "setting": "[7]", "value": "strong inhibition"},
      {"measurement": "inhibition of human plasma kallikrein", "setting": "[8]", "value": "strong inhibition"}
    ]},
    {"molecule": "B4", "values": [
      {"measurement": "effect on matriptase activity", "setting": "[9]", "value": "decrease matriptase activity in a dose-dependent manner"}
    ]}
  ]
}
